B1: Integrin beta-1 (Gallus gallus (Chicken)), P07228 (parent)
chain: MAETNLTLLTWAGILCCLIWSGSAQQGGSDCIKANAKSCGECIQAGPNCGWCKKTDFLQEGEPTSARCDDLAALKSKGCPEQDIENPRGSKRVLEDREVTNRKIGAAEKLKPEAITQIQPQKLVLQLRVGEPQTFSLKFKRAEDYPIDLYYLMDLSYSMKDDLENVKSLGTALMREMEKITSDFRIGFGSFVEKTVMPYISTTPAKLRNPCTGDQNCTSPFSYKNVLSLTSEGNKFNELVGKQHISGNLDSPEGGFDAIMQVAVCGDQIGWRNVTRLLVFSTDAGFHFAGDGKLGGIVLPNDGKCHLENNMYTMSHYYDYPSIAHLVQKLSENNIQTIFAVTEEFQAVYKELKNLIPKSAVGTLSSNSSNVIQLIIDAYNSLSSEVILENSKLPKEVTISYKSYCKNGVNDTQEDGRKCSNISIGDEVRFEINVTANECPKKGQNETIKIKPLGFTEEVEIHLQFICDCLCQSEGEPNSPACHDGNGTFECGACRCNEGRIGRLCECSTDEVNSEDMDAYCRRENSTEICSNNGECICGQCVCKKRENTNEVYSGKYCECDNFNCDRSNGLICGGNGICKCRVCECFPNFTGSACDCSLDTTPCMAGNGQICNGRGTCECGTCNCTDPKFQGPTCEMCQTCLGVCAEHKDCVQCRAFEKGEKKETCSQECMHFNMTRVESRGKLPQPVHPDPLSHCKEKDVGDCWFYFTYSVNSNGEASVHVVETPECPSGPDIIPIVAGVVAGIVLIGLALLLIWKLLMIIHDRREFAKFEKEKMNAKWDTGENPIYKSAVTTVVNPKYEGK

Variants of: B1
Conditions: with flna_human FLNA

Variant	effect of a mutation on the interaction
D764V	decreasing interaction
N785D	decreasing interaction
P786A	decreasing interaction
Y788A	disrupting interaction
Y788E	disrupting interaction
Y788F	decreasing interaction
N797D	decreasing interaction
N797I	decreasing interaction
